The results in this text go back to paper PMC4760774.

The test deals with Dengue virus serotype 3 nonstructural protein 5 with a six-residue deletion in the priming loop (DENV3 NS5-Δ6) (dengue virus serotype 3 (DENV3)). Briefly: crystal structure.

As usually defined, the stoichiometry N is the number of molecules, sites or subunits per partner or assembly. Substance “Dengue virus serotype 3 nonstructural protein 5 with a six-residue deletion in the priming loop (DENV3 NS5-Δ6) (enzyme)” had a stoichiometry N of 2.
